Experiment: soluble on expression in E. coli; label from the status in PepcDB or PDB records

| Sequence | soluble on expression in E. coli |
| --- | --- |
| MAIIASNNSWDLYQLAVVILNYRTPQLVVDCLASLVSQIDPQTQQVIVVDNASGDDSVEEIEKAIANNNWQDWVRLLPSDVNGGFSAGNNLGIQAIRAENYLLLNSDTIVRPGAIQTLLVALEQYPEAGLFSPRLEWPDGTPQISCFRDHSPLSEMIDGARTSVITKLLQPFDVPIPVTEQSFEPQWTSFACVLIRRSVVEQIGLMDDGYFMYYDDIDYCRRARQAAWKIRYIPQASVVHLRGGSGSVKSDVASRKRPRPYLYASRSRYFAKFYGPLGLALANLGWLGGWGIAALREILGQKEPHTCDRQWQDIWFQWRQPLKPYRPELEHHHHHH | soluble |
| MAHHHHHHMSSVSSPPLTDAEVRELSTAEIRLNLERCSRLLSQASLLRRLRDGGEGIRHRSELFAKELERRHTVEAANGDASTRLASSTLTEALKRENEAAILSESTHNATDAAREIAQKYRDQRIDVEATVRRIYEGILSESEIQRILHSVPPRFFLTYAETCEMERQLARDARKVELQKLAAQAARLSATPQ | soluble |
| MGSDKIHHHHHHMKITQIRNATLQLEFGGKTFLIDPMLAPKATYPGFPGTANDHLRNPLVELPLPMATILDVDAVIVTHTHLDHWDDAAIKAIPKTMPIFSQNAQDADLIRRAGFISVRVLGEQMEYDGITLIKTAGQHGSDETYANPQLAERLGEVCGIVFQHANEKSFYLAGDTVWNQHVIDVLTDYSPDVVALNIGNAFIPSFGSIIMGKEDVRRVHQLVPNAAIVATHMEAVNHCLLSRAELRDYLHEEKLQSIAHVPNDGESVQF | not soluble |
| MLNNAMSVVILAAGKGTRMYSDLPKVLHTLAGKAMVQHVIDAANELGAAHVHLVYGHGGDLLKQALKDDNLNWVLQAEQLGTGHAMQQAAPFFADDEDILMLYGDVPLISVETLQRLRDAKPQGGIGLLTVKLDDPTGYGRITRENGKVTGIVEHKDATDEQRQIQEINTGILIANGADMKRWLAKLTNNNAQGEYYITDIIALAYQEGREIVAVHPQRLSEVEGVNNRLQLSRLERVYQSEQAEKLLLAGVMLRDPARFDLRGTLTHGRDVEIDTNVIIEGNVTLGHRVKIGTGCVIKNSVIGDDCEISPYTVVEDANLAAACTIGPFARLRPGAELLEGAHVGNFVEMKKARLGKGSKAGHLTYLGDAEIGDNVNIGAGTITCNYDGANKFKTIIGDDVFVGSDTQLVAPVTVGKGATIAAGTTVTRNVGENALAISRVPQTQKEGWRRPVKKK | soluble |
| MSLAEFFKDSKASLELRNFYMNKDFRDEVSSAANQQSKQDEWAQGFILKYESGYTEGPVGFGLDMLGLLGVKLDSGPGEAGTGLLPGGYNNRAPDDYSELGVTGKVRFSKTELKVGTLLPKNPVLVYNDTRLLPQTFQGGNLQIKEIEGLTLDFGYLDEVNYRNSTHNEEMSLVNANRRNITIKPGAENEANFFMYGGATYQVTKALTATYYYGELDDLYKQHAVNLVHVLPLGKSSLKTDLRYARSTDDGEAHVDNHAFGLLTTYAMGAHKFGLGLQKMQGDTGFAQINGTDPFLVNYIQVNDFGNADERSWQLRYDYDFAALGIPGLTFMTRYVSGDHVDRGPGSDGKEWERDMDIAYVFQSGMLKNLSLKWRNATMRSNFVRDVDENRLIVSYTLPLLEGHHHHHH | not soluble |
| MGSDKIHHHHHHMSKHQNDNPRVPHEAAPLRVLHVGPGQGQRGGIASVLAELSAQRARFRDAGVVVAIFETHGFQSMRSLLCFPLVDIPRFLFAVLKGVDLIHFHVSVRGSFYRKFLLYLLARLFGKRTIFHLHAGNFQDFWASNGPTTRKAVSRFIRGADAVVAVSSAIASELQGHQGVTRNLYVIGNTAYSAELAAGAALRDSSGGKRVDMTPYVAFAGRFTEGKGLDELLRAVAALNRRGLKVQLRLAGAGDMDRWTRAAIEYGVSDQVRFVGWLQGDAKLEFYRDAAVFCMPSHFEAFGISTLEAMFIGRPVIGTRVGGFLDLVEEGVTGYLVRCGDSHGLAERIRHLVERPELAHEMGRQAVSRALSRYSVDAIVSQYARCYRQVNGSRGA | not soluble |
| MRGSHHHHHHGSAERMLATIMFTDIVGSTQHAAALGDDRWRDLLDNHDTIVCHEIQRFGGREVNTAGDGFVATFTSPSAAIACADDIVDAVAALGIEVRIGIHAGEVEVRDASHGTDVAGVAVHIGARVCALAGPSEVLVSSTVRDIVAGSRHRFAERGEQELKGVPGRWRLCVLMRDDATRTR | soluble |
| SLLKLAIPKGRLEEKVMTYLKKTGVIFERESSILREGKDIVCFMVRPFDVPTYLVHGVADIGFCGTDVLLEKETSLIQPFFIPTNISRMVLAGPKGRGIPEGEKRIATKFPNVTQRYCESKGWHCRIIPLKGSVELAPIAGLSDLIVDITETGRTLKENNLEILDEIFVIRTHVVVNPVSYRTKREEVVSFLEKLQEVIEHDSNEQSRGEGGSHHHHHH | soluble |
| MKKLAILLVCAAMLASCNGLGGGSKDLKAENDSLLMELTQRNAELDEMMGTFNEVQEGFRKINAAESRVDLTRGTISENSATAKQQIASDIEFITKQMEENKAQIAKLQAMLKSSKNNSAQLKKAVESLTQELVAKTQRIEELQAELASKNIRIQELDAAVTGLTADKESLAAENEAKAKTVAEQDKAINSAWFVFGTKSELKTQKILEKGDVLKSADFNKDYFTQIDIRTTKEIKLYSKRAELLTTHPAKSYELVKDDKGQLTLKITNPKEFWSVSKYLVIQVK | not soluble |
| MKILPLALFIIPFLAGCGANNTPPQTPIPGEKTSAKLRTLETGAAAIQSRPPVDAISTYLDGFHFYSGDKNGQMEAHHYVTVLNEDVMQAVIYDGNTKNARLMGVEYIISERLFKTLPPEEKKLWHSHQYEVKSGSLVAPGLPQVADKALMSKIVNTYGKTWHTWHTDRDKTLPMGIPALMMGFTGDGQLDPALLADRDRRLGIDTQAIKRERQDLPEHPVVKGANAWEQGEVIQLQRVQGSGEHGRGDTAHFGTSEQSRQLEHHHHHH | soluble |
| MKLSVVMPVYNEKATLRAIYEQVAAVTIDKEIILVDDCSTDGTREIVRELGATGATVVLHDRNMGKGAALRSGFRHVTGDVVLIQDADLEYDPGQYPLLIQPILNGEVDVVYGSRFLSGERSLGMSFWNRAGNRILTYLSNTLTKLELTDVETCYKVFSRDVLERITIEENRFGCEPEITAKLAKLGVRIREVGISYRGRTSAEGKKIGWRDFISSVRCIAKYTLT | soluble |
| HKCDITLQEIIKDLNSLTEQKTLCTELTVTDIFAASKNTTEKETFCRAATVLRQFYSHHEKDTRCLGATAQQFHRHKQLIRDLKRLDRNLWGLAGLNSCPVKEANQSTLENFLERLKTIMREKYSKCSS | soluble |
| MFEHLCNIDDMTIIGQRSNPLNEDWNEWTLVICTKCKKVYEWQHHSEEQMHGGDLAITAIATDDYLHHKYNINEQDIPQILNKKKKIRRYDRYKKIYLEDYV | not soluble |
| MTLCAMYNISMAGSHPTTICVVMDRFLESFSELYDIIDENDTDVMMDFISRFARTDEIMPEDKTVGFVVVNADKKLMSVSFSDIDENMKKVIKATAEKFKNKGFKVETDM | soluble |
| MNKILLVDDDRELTSLLKELLEMEGFNVIVAHDGEQALDLLDDSIDLLLLDVMMPKKNGIDTLKALRQTHQTPVIMLTARGSELDRVLGLELGADDYLPKPFNDRELVARIRAILRRSHWSEQQQNNDNGSPTLEVDALVLNPGRQEASFDGQTLELTGTEFTLLYLLAQHLGQVVSREHLSQEVLGKRLTPFDRAIDMHISNLRRKLPDRKDGHPWFKTLRGRGYLMVSAS | soluble |
| MSFTQLMRVSMKIAFIGEAVSGFGGMETVIRDVITTFRQQHIQSEMFFFCRNDKMDKGWLEGIKYSCSFSNIRLGFLRRAKHIHALSKWLQEYQPDIVICIDVISCLFAAKARKKSGIDMPVFSWPHFSLDHKKHAEYITCADYHLAISSGIKQQMINRGVAESTINVIFNPVETKDSVIPAPEEGETATFIYVGRMKFEGQKRVKDLLDGLSQAKGNWKLHVLGDGSDFEKCQAYGRELNIDDRIVWYGWQQYPWELVQQDIEKVSALLLTSSFEGFPMTLLEALSWGIPCISADCVSGPADIIQPDVNGHLYQPGDIAGFVTLLNKYIAGEIHIEHEKIPASIDEFYQSKYYDRLHKVIISAISRRK | not soluble |
